According to patent publication US20100210517A1 (RAPTOR PHARMACEUTICAL, published 2010):

What was measured:
MAT CR12 = target: T1, MAT CR12 (human, UniProt Q9Y5Y6 452-524); assay: binding of truncated MatRAP1 forms to MAT CR12, relative signal under isomolar conditions
T1 construct: also called ST14 CR12; matriptase CR12
T1 sequence: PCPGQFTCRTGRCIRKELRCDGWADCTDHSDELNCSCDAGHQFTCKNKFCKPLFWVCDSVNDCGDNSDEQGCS
Experimental: (§1) Solid phase binding assays-Purified, refolded CR protein (1 μg) was bound to Nunc Maxisorp™ 96-well plates in TBS pH 8 supplemented with 5 mM CaCl₂ (TBSC) overnight at 4° C. Wells were washed with TBSC and then blocked with TBSC containing 2% bovine serum albumin (BSA). […] Control wells contained no added ligand. As an additional control, to determine whether the absence of calcium affected binding, 10 mM EGTA was included in the incubation medium for some samples. […] Excess primary antibody was removed and wells washed before incubation with the secondary antibody, HRP-conjugated goat anti rabbit IgG (Bio-Rad). After washing, TMB substrate solutions (Bio-Rad) were added to detect HRP. Color development was stopped with 1N HCl. Absorption at 450 nm was measured with a microplate spectrophotometer (Molecular Devices). Data were plotted and Kd values derived by non-linear regression with the assumption of single-site binding (GraphPad Prism).

MAT CR23 = target: T2, MAT CR23 (human); assay: solid-phase binding assay; target not given, MAT CR23 is the pair MatRAP1 was selected on
T2 construct: range 487-566; also called ST14 CR23; matriptase CR23
T2 sequence (Q9Y5Y6 487-566): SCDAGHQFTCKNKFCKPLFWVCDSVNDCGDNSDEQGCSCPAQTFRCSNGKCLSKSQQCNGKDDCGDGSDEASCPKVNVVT
Experimental: as §1

LRP2 CR89 [1] = target: T3, LRP2 CR89 (human, UniProt P98164 1025-1102); assay: solid-phase binding assay, CR protein coated on plate, anti-RAP detection
T3 construct: domain: CR89; also called YVWR; L2 CR89; not shown: N-terminal hexahistidine and S-peptide tags of pET30(+)a
T3 sequence (P98164 1025-1102): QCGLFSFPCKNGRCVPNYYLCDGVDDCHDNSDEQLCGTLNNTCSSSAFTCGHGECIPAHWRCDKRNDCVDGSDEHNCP

LRP1 CR3-5 [2] = target: T4, LRP1 CR3-5 (human); assay: as above
T4 construct: range 852-973; also called L1 CR3-5
T4 sequence (Q07954 852-973): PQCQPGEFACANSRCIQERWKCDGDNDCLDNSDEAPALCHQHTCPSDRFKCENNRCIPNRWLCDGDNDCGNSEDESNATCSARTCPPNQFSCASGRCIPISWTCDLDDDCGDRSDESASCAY

LRP2 CR89 [3] = target: T3, LRP2 CR89; assay: solid-phase assay; OD at the highest ligand concentration as percent of the highest OD of all ligands
Experimental: as §1

LRP1 CR3-5 [4] = target: T4, LRP1 CR3-5; assay: as above
Experimental: as §1

LRP2 CR89 [5] = target: T3, LRP2 CR89; assay: solid-phase assay on coated CR protein, single-site non-linear fit
Experimental: (§2) Data were plotted and fitted by non-linear regression with the assumption of a single binding site (GraphPad Prism). Kd values with standard deviations were derived from the regression analysis.
as §1

LRP1 CR3-5 [6] = target: T4, LRP1 CR3-5; assay: as above
Experimental: as §2, §1

LRP2 CR89 [7] = target: T3, LRP2 CR89; assay: solid-phase assay on coated CR protein, anti-RAP detection, A450
Experimental: as §2, §1

| Binder | % max (LRP2 CR89 [3]) | % max (LRP1 CR3-5 [4]) | Kd (LRP2 CR89 [5]) | binding result (LRP2 CR89 [7]) | further results |
| --- | --- | --- | --- | --- | --- |
| MatRAP1 truncated variant, amino acids 243-313 (71 amino acids) (ligand, also called best truncated variant; not shown: N-terminal hexahistidine and S-peptide tags of pET30(+)a) FREELKHFGAKIERHNHYQKQLEIAHEWLRHAESVGDGERVSRSREKHALLEGRTKELGYTVKKHLQDLSG |  |  |  |  | fnctn (relative binding signal under isomolar conditions) (MAT CR12): 2.7; fold increase in affinity over MatRAP1 N-42 (MAT CR23): 4 fold; fold increase in affinity over the full-length d3 variant (MAT CR23): 12 fold |
| MatRAP1 truncated by 31 amino acids at the N-terminus (ligand, Range derived from the number of residues removed; also called MatRAP1 N-31; not shown: N-terminal hexahistidine and S-peptide tags of pET30(+)a) SANLTDKELEAFREELKHFGAKIERHNHYQKQLEIAHEWLRHAESVGDGERVSRSREKHALLEGRTKELGYTVKKHLQDLSGRISRAR |  |  |  |  | fnctn (relative binding signal under isomolar conditions) (MAT CR12): 0.35 |
| MatRAP1 N-42 without the C-terminal linker and affinity tag (ligand, Range derived; not shown: N-terminal hexahistidine and S-peptide tags of pET30(+)a) FREELKHFGAKIERHNHYQKQLEIAHEWLRHAESVGDGERVSRSREKHALLEGRTKELGYTVKKHLQDLSGRISRAR |  |  |  |  | fold increase in affinity over MatRAP1 N-42 (MAT CR23): 2 fold |
| MatRAP1 truncated by 52 amino acids at the N-terminus (ligand, Range derived from the number of residues removed (52 total); also called MatRAP1 N-52; not shown: N-terminal hexahistidine and S-peptide tags of pET30(+)a) KIERHNHYQKQLEIAHEWLRHAESVGDGERVSRSREKHALLEGRTKELGYTVKKHLQDLSGRISRAR |  |  |  |  | binding result (MAT CR12): no binding |
| MatRAP1 truncated by 10 amino acids at the N-terminus (ligand, Range derived: d3 starts at 201 and 10 residues were removed; also called MatRAP1 N-10; not shown: N-terminal hexahistidine and S-peptide tags of pET30(+)a) GYSTEAEFEEPRVIDLWDLAQSANLTDKELEAFREELKHFGAKIERHNHYQKQLEIAHEWLRHAESVGDGERVSRSREKHALLEGRTKELGYTVKKHLQDLSGRISRAR |  |  |  |  | fnctn (relative binding signal under isomolar conditions) (MAT CR12): 0.1 |
| MegaRAP1 d3 double revertant A256K, E270K (ligand, not shown: N-terminal hexahistidine and S-peptide tags of pET30(+)a) LDRLRRVSHQGYTTEAKFEEPRVIDLWDLAQSANLTDKELEAFREELKYFKAKIEKHNHYQKQLEIAHEKLRHAESVGDGERVSRSREKHALLEGRTKELGYTVKKHLQDLSGRISRAR | 73% | 93% | 72 nM |  | fold loss of affinity against the E270K revertant (LRP2 CR89 [1]): 2 fold; fold improvement in affinity against the E270K single-site revertant (LRP1 CR3-5 [2]): ~30 fold; Kd (LRP1 CR3-5 [6]): 4 nM |
| MegaRAP1 d3 revertant E270K (ligand, MegaRAP1 d3 with position 270 reverted to wild type; also called MegaRAP1 d3 E270K; E270K revertant; not shown: N-terminal hexahistidine and S-peptide tags of pET30(+)a) LDRLRRVSHQGYTTEAKFEEPRVIDLWDLAQSANLTDKELEAFREELKYFKAKIEAHNHYQKQLEIAHEKLRHAESVGDGERVSRSREKHALLEGRTKELGYTVKKHLQDLSGRISRAR | 100% |  | 8 nM |  | Kd (LRP1 CR3-5 [2]): 142 nM; Kd (LRP1 CR3-5 [6]): 114 nM |
| MegaRAP1 d3 revertant K251E (ligand, not shown: N-terminal hexahistidine and S-peptide tags of pET30(+)a) LDRLRRVSHQGYTTEAKFEEPRVIDLWDLAQSANLTDKELEAFREELKYFEAKIEAHNHYQKQLEIAHEELRHAESVGDGERVSRSREKHALLEGRTKELGYTVKKHLQDLSGRISRAR | 11% | 2% |  | no binding (tested: 100 nM) |  |
| MegaRAP1 d3 double revertant K251E, E270K (ligand, not shown: N-terminal hexahistidine and S-peptide tags of pET30(+)a) LDRLRRVSHQGYTTEAKFEEPRVIDLWDLAQSANLTDKELEAFREELKYFEAKIEAHNHYQKQLEIAHEKLRHAESVGDGERVSRSREKHALLEGRTKELGYTVKKHLQDLSGRISRAR | 16% | 16% | 153 nM |  | fold difference in affinity against the single-site E270K revertant (LRP2 CR89 [1]): ~20 fold |
| MegaRAP1 d3 revertant A256K (ligand, not shown: N-terminal hexahistidine and S-peptide tags of pET30(+)a) LDRLRRVSHQGYTTEAKFEEPRVIDLWDLAQSANLTDKELEAFREELKYFKAKIEKHNHYQKQLEIAHEELRHAESVGDGERVSRSREKHALLEGRTKELGYTVKKHLQDLSGRISRAR | 2% | 6% |  | no binding (tested: 100 nM) |  |
| RAP d3 forward mutant H249Y (ligand, The paragraph gives only the position; the change H249Y follows from the mutagenic primers; also called single-site RAP d3 mutant at 249; not shown: N-terminal hexahistidine and S-peptide tags of pET30(+)a) LDRLRRVSHQGYSTEAEFEEPRVIDLWDLAQSANLTDKELEAFREELKYFEAKIEKHNHYQKQLEIAHEKLRHAESVGDGERVSRSREKHALLEGRTKELGYTVKKHLQDLSGRISRAR | 2% | 90% |  | no binding (tested: 100 nM) | Kd (LRP1 CR3-5 [6]): 28 nM |
| MegaRAP1 d3 revertant T213S (ligand, MegaRAP1 d3 with position 213 reverted to wild type; not shown: N-terminal hexahistidine and S-peptide tags of pET30(+)a) LDRLRRVSHQGYSTEAKFEEPRVIDLWDLAQSANLTDKELEAFREELKYFKAKIEAHNHYQKQLEIAHEELRHAESVGDGERVSRSREKHALLEGRTKELGYTVKKHLQDLSGRISRAR | 94% | 2% | 19 nM |  |  |
| RAP d3 forward mutant E217K (ligand, The paragraph gives only the position; the change E217K follows from the mutagenic primers and the MegaRAP1 mutation set; also called single-site RAP d3 mutant at 217; not shown: N-terminal hexahistidine and S-peptide tags of pET30(+)a) LDRLRRVSHQGYSTEAKFEEPRVIDLWDLAQSANLTDKELEAFREELKHFEAKIEKHNHYQKQLEIAHEKLRHAESVGDGERVSRSREKHALLEGRTKELGYTVKKHLQDLSGRISRAR | 5% | 91% |  | no binding (tested: 100 nM) | Kd (LRP1 CR3-5 [6]): 9 nM |
| RAP d3 forward mutant K270E (ligand, also called K270E alone; not shown: N-terminal hexahistidine and S-peptide tags of pET30(+)a) LDRLRRVSHQGYSTEAEFEEPRVIDLWDLAQSANLTDKELEAFREELKHFEAKIEKHNHYQKQLEIAHEELRHAESVGDGERVSRSREKHALLEGRTKELGYTVKKHLQDLSGRISRAR | 2% | 4% |  | no binding (tested: 100 nM) |  |
| MegaRAP1 d3 revertant Y249H (ligand, MegaRAP1 d3 with position 249 reverted to wild type; not shown: N-terminal hexahistidine and S-peptide tags of pET30(+)a) LDRLRRVSHQGYTTEAKFEEPRVIDLWDLAQSANLTDKELEAFREELKHFKAKIEAHNHYQKQLEIAHEELRHAESVGDGERVSRSREKHALLEGRTKELGYTVKKHLQDLSGRISRAR | 35% | 2% |  |  |  |
| RAP d3 forward mutant K256A, K270E (ligand, also called K270E in combination with K256A; not shown: N-terminal hexahistidine and S-peptide tags of pET30(+)a) LDRLRRVSHQGYSTEAEFEEPRVIDLWDLAQSANLTDKELEAFREELKHFEAKIEAHNHYQKQLEIAHEELRHAESVGDGERVSRSREKHALLEGRTKELGYTVKKHLQDLSGRISRAR | 3% | 2% |  | no binding (tested: 100 nM) |  |
| RAP d3 forward mutant E251K (ligand, The paragraph gives only the position; the change E251K follows from the mutagenic primers; not shown: N-terminal hexahistidine and S-peptide tags of pET30(+)a) LDRLRRVSHQGYSTEAEFEEPRVIDLWDLAQSANLTDKELEAFREELKHFKAKIEKHNHYQKQLEIAHEKLRHAESVGDGERVSRSREKHALLEGRTKELGYTVKKHLQDLSGRISRAR | 5% | 100% |  | no binding (tested: 100 nM) | Kd (LRP1 CR3-5 [6]): 7 nM |
| MegaRAP1 d3 revertant K217E (ligand, MegaRAP1 d3 with position 217 reverted to wild type; not shown: N-terminal hexahistidine and S-peptide tags of pET30(+)a) LDRLRRVSHQGYTTEAEFEEPRVIDLWDLAQSANLTDKELEAFREELKYFKAKIEAHNHYQKQLEIAHEELRHAESVGDGERVSRSREKHALLEGRTKELGYTVKKHLQDLSGRISRAR | 88% | 2% | 25 nM |  |  |
| RAP d3 forward mutant E251K, K270E (ligand, also called K270E in combination with E251K; not shown: N-terminal hexahistidine and S-peptide tags of pET30(+)a) LDRLRRVSHQGYSTEAEFEEPRVIDLWDLAQSANLTDKELEAFREELKHFKAKIEKHNHYQKQLEIAHEELRHAESVGDGERVSRSREKHALLEGRTKELGYTVKKHLQDLSGRISRAR | 2% | 4% |  | no binding (tested: 100 nM) |  |
| RAP d3 forward mutant E251K, K256A, K270E (ligand, also called triple mutant; not shown: N-terminal hexahistidine and S-peptide tags of pET30(+)a) LDRLRRVSHQGYSTEAEFEEPRVIDLWDLAQSANLTDKELEAFREELKHFKAKIEAHNHYQKQLEIAHEELRHAESVGDGERVSRSREKHALLEGRTKELGYTVKKHLQDLSGRISRAR | 40% | 2% | 114 nM |  |  |
